Results: the supplement of paper PMC10065799, “High-throughput profiling of sequence recognition by tyrosine kinases and SH2 domains using bacterial peptide display” (eLife, 2023)

Molecular target: c-Src SH2
Assay: SH2 binding enrichment of the phosphorylated peptide, bacterial display (enrichment ratio); higher = better substrate or ligand; peptides without Tyr show the background
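Throughout, for SH2 binding enrichment of the phosphorylated peptide, bacterial display: peptide library displayed on the E. coli surface as eCPX fusions, selected cells deep-sequenced, score is each peptide's frequency after selection divided by its frequency in the input.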
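Throughout, for phosphorylation enrichment, bacterial display: 11-residue human phosphosite peptides and single-mutation variants displayed on the E. coli surface, counted by deep sequencing, each peptide's frequency after selection divided by its frequency in the unselected input library; frequency after pTyr selection over input frequency; kinase dosed for 20-30% of maximal phosphorylation in three min.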

Sequence	SH2 binding enrichment
VTAALYGCLYE [BTD_Y536_R538C]	0.547
FSKQIYKGMVA [PCDH15_Y931_R929Q]	0.471
QKPLDYYRVNL [GALE_Y104]	0.422
ISRASYYRKGG [ALK_Y1282_Y1278S]	0.362
VGTKRYMAPEV [ACVRL1_Y375]	0.511
RTLIRYANLGN [BEST1_Y131]	0.802
PQAVTYAKVKH [LILRB4_Y360]	2.6
RIVEIYSRRLR [GCH1_Y175_Q180R]	0.404
ANNEYYFRVCA	0.402
LSIWPYLQKID [MFSD8_Y63_M58L]	0.797
FGPPQYNMQFS [ERBB2IP_Y977_I979M_YF]	0.529
EGWQVYRLGAR [MISP_Y95]	0.515
HPHECYAKVFD [ALB_Y394_D389H]	3.07
VNKLVYENING [FRS2_Y306]	6.33
KGLKVYVNGTL [ADGRD1_Y183_E178K]	0.549
GSERDYTYDEL [EIF2S2_Y174_E177D]	1.66
KINKMYSDRAM	0.418
SGSIHYSHVPR [GLB1_Y57_R59H]	0.593
SRDDFYETIAM [NPY1R_Y347_D346Y_YF]	0.916
FLENFYDLEKD [MMP3_Y42_K45E_YF]	0.677
TTPAVYARVAK [CTRB2_Y246]	2.12
RSRSPYSSRHS [CDK13_Y415]	0.433

Next, values leading:

SH2 binding enrichment	Sequence
0.382	FDDGKYVFVVT [RPS6KA3_Y488_YF]
0.456	NGQALYAACQT [XDH_Y1092_V1091L]
2.01	CTAIHYNFMCN [TP53_Y234_T231A_YF]
1.53	TVSTGYTQPQP [SARG_Y259_R258G]
0.453	ATCKAYGQALA [TKT_Y321_R318C]
19.8	TVSRPYSFIEF [SEC22B_Y110]
0.61	DEEPPDRGPFC [SASH1_Y551_Y551D]
0.893	LVMFISAIFGM [SCN1A_Y1684_Y1684S]
0.483	VKRNRYKDILP [PTPN12_Y64_K61R]
0.544	SHNELYFEAAE [VANGL1_Y344_E347A_YF]
1.2	YMRGMYFRMTD [PLA2G6_Y541_K545T]

Molecular target: Grb2 SH2 (UniProt P62993)
Assay: as above

Sequence	SH2 binding enrichment
VTAALYGCLYE [BTD_Y536_R538C]	0.729
FSKQIYKGMVA [PCDH15_Y931_R929Q]	0.879
QKPLDYYRVNL [GALE_Y104]	0.937
ISRASYYRKGG [ALK_Y1282_Y1278S]	0.655
VGTKRYMAPEV [ACVRL1_Y375]	0.804
RTLIRYANLGN [BEST1_Y131]	3.12
PQAVTYAKVKH [LILRB4_Y360]	0.759
RIVEIYSRRLR [GCH1_Y175_Q180R]	0.761
ANNEYYFRVCA	0.646
LSIWPYLQKID [MFSD8_Y63_M58L]	1.23
FGPPQYNMQFS [ERBB2IP_Y977_I979M_YF]	0.932
EGWQVYRLGAR [MISP_Y95]	0.901
HPHECYAKVFD [ALB_Y394_D389H]	0.944
VNKLVYENING [FRS2_Y306]	23.9
KGLKVYVNGTL [ADGRD1_Y183_E178K]	1.32
GSERDYTYDEL [EIF2S2_Y174_E177D]	0.82
KINKMYSDRAM	0.632
SGSIHYSHVPR [GLB1_Y57_R59H]	0.745
SRDDFYETIAM [NPY1R_Y347_D346Y_YF]	0.947
FLENFYDLEKD [MMP3_Y42_K45E_YF]	0.978
TTPAVYARVAK [CTRB2_Y246]	0.897
RSRSPYSSRHS [CDK13_Y415]	0.793

Further lines, results first:

SH2 binding enrichment	Sequence
0.626	FDDGKYVFVVT [RPS6KA3_Y488_YF]
0.782	NGQALYAACQT [XDH_Y1092_V1091L]
1.33	CTAIHYNFMCN [TP53_Y234_T231A_YF]
0.633	TVSTGYTQPQP [SARG_Y259_R258G]
0.899	ATCKAYGQALA [TKT_Y321_R318C]
0.891	TVSRPYSFIEF [SEC22B_Y110]
1.01	DEEPPDRGPFC [SASH1_Y551_Y551D]
1.39	LVMFISAIFGM [SCN1A_Y1684_Y1684S]
0.541	VKRNRYKDILP [PTPN12_Y64_K61R]
0.763	SHNELYFEAAE [VANGL1_Y344_E347A_YF]
0.959	YMRGMYFRMTD [PLA2G6_Y541_K545T]

Molecular target: SHP2-C SH2
Assay: as above

Sequence	SH2 binding enrichment
VTAALYGCLYE [BTD_Y536_R538C]	0.564
FSKQIYKGMVA [PCDH15_Y931_R929Q]	0.654
QKPLDYYRVNL [GALE_Y104]	0.672
ISRASYYRKGG [ALK_Y1282_Y1278S]	0.426
VGTKRYMAPEV [ACVRL1_Y375]	0.616
RTLIRYANLGN [BEST1_Y131]	1.12
PQAVTYAKVKH [LILRB4_Y360]	82.1
RIVEIYSRRLR [GCH1_Y175_Q180R]	0.353
ANNEYYFRVCA	0.461
LSIWPYLQKID [MFSD8_Y63_M58L]	1.1
FGPPQYNMQFS [ERBB2IP_Y977_I979M_YF]	0.653
EGWQVYRLGAR [MISP_Y95]	0.662
HPHECYAKVFD [ALB_Y394_D389H]	2.67
VNKLVYENING [FRS2_Y306]	2.03
KGLKVYVNGTL [ADGRD1_Y183_E178K]	0.703
GSERDYTYDEL [EIF2S2_Y174_E177D]	0.722
KINKMYSDRAM	0.639
SGSIHYSHVPR [GLB1_Y57_R59H]	1.55
SRDDFYETIAM [NPY1R_Y347_D346Y_YF]	0.73
FLENFYDLEKD [MMP3_Y42_K45E_YF]	0.907
TTPAVYARVAK [CTRB2_Y246]	2.3
RSRSPYSSRHS [CDK13_Y415]	0.543

Further lines, results first:

SH2 binding enrichment	Sequence
0.531	FDDGKYVFVVT [RPS6KA3_Y488_YF]
0.787	NGQALYAACQT [XDH_Y1092_V1091L]
1.73	CTAIHYNFMCN [TP53_Y234_T231A_YF]
0.68	TVSTGYTQPQP [SARG_Y259_R258G]
0.631	ATCKAYGQALA [TKT_Y321_R318C]
26.3	TVSRPYSFIEF [SEC22B_Y110]
0.694	DEEPPDRGPFC [SASH1_Y551_Y551D]
0.842	LVMFISAIFGM [SCN1A_Y1684_Y1684S]
0.364	VKRNRYKDILP [PTPN12_Y64_K61R]
0.614	SHNELYFEAAE [VANGL1_Y344_E347A_YF]
1.83	YMRGMYFRMTD [PLA2G6_Y541_K545T]

Molecular target: Fyn (UniProt P06241)
Sequence (P06241 whole entry, looked up): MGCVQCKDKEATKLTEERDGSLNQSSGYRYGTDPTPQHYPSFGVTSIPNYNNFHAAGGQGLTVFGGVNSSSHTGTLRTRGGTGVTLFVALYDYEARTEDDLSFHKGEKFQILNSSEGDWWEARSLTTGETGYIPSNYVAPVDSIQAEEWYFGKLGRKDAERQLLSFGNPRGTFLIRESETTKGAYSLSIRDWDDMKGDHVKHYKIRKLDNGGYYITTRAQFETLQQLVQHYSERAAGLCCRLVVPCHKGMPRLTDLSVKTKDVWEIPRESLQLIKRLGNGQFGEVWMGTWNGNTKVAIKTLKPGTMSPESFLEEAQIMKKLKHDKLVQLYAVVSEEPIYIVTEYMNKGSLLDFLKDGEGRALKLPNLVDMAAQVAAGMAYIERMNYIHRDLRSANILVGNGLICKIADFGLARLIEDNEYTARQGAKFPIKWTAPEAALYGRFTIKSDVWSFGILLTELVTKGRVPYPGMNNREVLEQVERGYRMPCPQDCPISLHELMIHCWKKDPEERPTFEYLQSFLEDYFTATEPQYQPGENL
Assay: phosphorylation enrichment, bacterial display (enrichment ratio); higher = better substrate or ligand; peptides without Tyr show the background

Sequence	phosphorylation enrichment
VTAALYGCLYE [BTD_Y536_R538C]	5.14
FSKQIYKGMVA [PCDH15_Y931_R929Q]	0.502
QKPLDYYRVNL [GALE_Y104]	0.697
FDDGKYVFVVT [RPS6KA3_Y488_YF]	0.493
NGQALYAACQT [XDH_Y1092_V1091L]	3.2
ISRASYYRKGG [ALK_Y1282_Y1278S]	0.511
CTAIHYNFMCN [TP53_Y234_T231A_YF]	0.442
VGTKRYMAPEV [ACVRL1_Y375]	0.361
RTLIRYANLGN [BEST1_Y131]	0.973
TVSTGYTQPQP [SARG_Y259_R258G]	0.442
ATCKAYGQALA [TKT_Y321_R318C]	0.424
TVSRPYSFIEF [SEC22B_Y110]	0.993
PQAVTYAKVKH [LILRB4_Y360]	0.294
RIVEIYSRRLR [GCH1_Y175_Q180R]	0.922
DEEPPDRGPFC [SASH1_Y551_Y551D]	0.532
LVMFISAIFGM [SCN1A_Y1684_Y1684S]	0.788
ANNEYYFRVCA	0.471

Sequence	phosphorylation enrichment
VKRNRYKDILP [PTPN12_Y64_K61R]	0.689
LSIWPYLQKID [MFSD8_Y63_M58L]	0.501
FGPPQYNMQFS [ERBB2IP_Y977_I979M_YF]	0.456
EGWQVYRLGAR [MISP_Y95]	2.59
HPHECYAKVFD [ALB_Y394_D389H]	0.622
SHNELYFEAAE [VANGL1_Y344_E347A_YF]	0.591
VNKLVYENING [FRS2_Y306]	0.95
KGLKVYVNGTL [ADGRD1_Y183_E178K]	0.364
GSERDYTYDEL [EIF2S2_Y174_E177D]	0.59
KINKMYSDRAM	0.361
SGSIHYSHVPR [GLB1_Y57_R59H]	0.35
SRDDFYETIAM [NPY1R_Y347_D346Y_YF]	1.44
FLENFYDLEKD [MMP3_Y42_K45E_YF]	4.33
TTPAVYARVAK [CTRB2_Y246]	1.28
RSRSPYSSRHS [CDK13_Y415]	0.557
YMRGMYFRMTD [PLA2G6_Y541_K545T]	0.434
